Biological target: HA-hFc probe: H1N1 A/California/04/2009 HA ectodomain fused to human IgG1 Fc
Test: flow cytometry on cells
Conditions: parent: est. 1.0; read off a plot

Substance | ratio to parent
Flag-tagged fTfR-5J8 receptor, WT (Flag+) (from UniProt Q9MYZ3) D100bL | 0.28
Flag-tagged fTfR-5J8 receptor, WT (Flag+) (from UniProt Q9MYZ3) I93A | 0.98
Flag-tagged fTfR-5J8 receptor, WT (Flag+) (from UniProt Q9MYZ3) I93D | 0.97
Flag-tagged fTfR-5J8 receptor, WT (Flag+) (from UniProt Q9MYZ3) N32A | 0.94
Flag-tagged fTfR-5J8 receptor, WT (Flag+) (from UniProt Q9MYZ3) R97A; P100aA; I93A | 0.42
Flag-tagged fTfR-5J8 receptor, WT (Flag+) (from UniProt Q9MYZ3) R97H | 0.84

— article PMC12090727
